According to patent publication US7521047 (GPC BIOTECH, dated 2009):

T1: HLA-DR (DRA*0101/DRB1*0401) on PRIESS cells (human, UniProt P01903 26-254; P01911 30-266)
T1 MHC II alpha: not shown
T1 MHC II beta: not shown

T2: human MHC class II DR protein (DRA*0101/DRB1*0401), purified from PRIESS cells (human, UniProt P01903 26-254; P01911 30-266, limits assumed)
T2 construct: mature; also called HLA-DR protein; MHCII
T2 MHC II alpha: not shown
T2 MHC II beta: not shown


Tests used:
[1] = biological target: T1, HLA-DR (DRA*0101/DRB1*0401) on PRIESS …; test: cell-based or functional assay
BSA = biological target: T3, BSA (bovine, UniProt P02769 25-607); test: ELISA, coated antigen
T3 construct: negative control antigen; also called bovine serum albumine
T3 sequence (P02769 25-607 limits assumed): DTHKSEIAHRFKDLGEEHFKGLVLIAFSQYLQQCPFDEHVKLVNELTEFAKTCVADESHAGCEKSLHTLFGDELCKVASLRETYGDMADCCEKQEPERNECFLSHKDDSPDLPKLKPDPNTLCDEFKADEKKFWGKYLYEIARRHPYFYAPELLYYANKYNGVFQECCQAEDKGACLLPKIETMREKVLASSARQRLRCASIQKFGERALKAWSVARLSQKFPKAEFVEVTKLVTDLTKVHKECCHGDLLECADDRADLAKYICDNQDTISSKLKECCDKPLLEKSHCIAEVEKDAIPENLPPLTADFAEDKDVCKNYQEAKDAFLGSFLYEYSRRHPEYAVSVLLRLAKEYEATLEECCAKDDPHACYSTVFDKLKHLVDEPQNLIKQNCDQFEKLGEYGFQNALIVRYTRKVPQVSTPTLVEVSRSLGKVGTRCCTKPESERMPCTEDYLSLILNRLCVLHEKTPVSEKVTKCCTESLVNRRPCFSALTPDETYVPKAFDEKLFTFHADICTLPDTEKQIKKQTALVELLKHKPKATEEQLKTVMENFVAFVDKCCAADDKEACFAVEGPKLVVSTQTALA

[2] = biological target: T2, human MHC class II DR protein …; test: SPR (BIAcore), Fab, chip density 500 RU MHCII
[3] = biological target: T2, human MHC class II DR protein …; test: BiaCore, Fab
[4] = biological target: T2, human MHC class II DR protein …; test: BiaCore, Fab
[5] = biological target: HLA-DR on MHH-CALL-4 cells (human); test: cell-based or functional assay
[6] = biological target: T2, human MHC class II DR protein …; test: SPR (BIAcore), MHCII on CM5 chip
[7] = biological target: T2, human MHC class II DR protein …; test: SPR (BIAcore), chip density 4000 RU MHCII
[8] = biological target: T1, HLA-DR (DRA*0101/DRB1*0401) on PRIESS …; test: cell-based or functional assay
HLA-DR on MN-60 cells = HLA-DR on MN-60 cells (human); test: cell-based or functional assay
HLA-DR on BJAB cells = HLA-DR on BJAB cells (human); test: cell-based or functional assay
HLA-DR on BONNA-12 cells = HLA-DR on BONNA-12 cells (human); test: cell-based or functional assay
[9] = biological target: chimeric 0401-IE class II molecule on cells of transgenic mice (human/murine chimera); test: cell-based or functional assay
[10] = biological target: T2, human MHC class II DR protein …; test: SPR (BIAcore), Fab, 8 preparations on 4 chips
[11] = biological target: T2, human MHC class II DR protein …; test: ELISA, coated antigen, Fab 100 ng/well, read at 370 nm
Procedure: After washing in PBS the anti-human IgG F(ab')_2-peroxidase-conjugate at a 1:10,000 dilution in TBS (supplemented with 5% w/v non-fat drymilk/0.05% v/v Tween 20) was added to each well for 1 h. Final washes were carried out in PBS followed the addition the substrate POD (Roche).

HLA-DR on LG-2 cells = HLA-DR on LG-2 cells (human); test: cell-based or functional assay
[12] = biological target: T2, human MHC class II DR protein …; test: SPR (BIAcore), MHCII on CM5 chip

Binder	EC50 of cell killing, cross-linked Fab, bivalent agent [1] [nM]	binding result (BSA)	Kd [2] [nM]	koff [2] [s⁻¹]	kon [2] [M⁻¹ s⁻¹]	Kd [4] [nM]	koff [4] [s⁻¹]	kon [4] [M⁻¹ s⁻¹]	maximum capacity to kill MHH-Call 4 cells [5] [%]	Kd [6] [nM]	koff [6] [s⁻¹]	kon [6] [M⁻¹ s⁻¹]	IC50 of inhibition of IL-2 secretion from T-Hyb 1 cells [9]	Maximum inhibition(%) of IL-2 secretion [9] [%]	ELISA signal [11]	also measured
MS-GPC-1 Fab (Fab, V domains shown, Fab from pMx9_Fab: VH-CH1 with FLAG tag and STREP tag II, VL-CL; VH residue 1 is Q in Fab; also called 17-Fab; 17) VH: QVQLKESGPALVKPTQTLTLTCTFSGFSLSTSGVGVGWIRQPPGKALEWLALIDWDDDKYYSTSLKTRLTISKDTSKNQVVLTMTNMDPVDTATYYCARQYGHRGGFDHWGQGTLVTVSS VL: DIVLTQPPSVSGAPGQRVTISCSGSSSNIGSNYVSWYQQLPGTAPKLLIYDNNQRPSGVPDRFSGSKSGTSASLAITGLQSEDEADYYCQSYDFNESVFGGGTKLTVLG	54	no binding	820	0.053	63900											
MS-GPC-10 Fab (Fab, V domains shown, Fab from pMx9_Fab: VH-CH1 with FLAG tag and STREP tag II, VL-CL; VH residue 1 is Q in Fab; also called E6-Fab; E6) VH: QVQLKESGPALVKPTQTLTLTCTFSGFSLSTSGVGVGWIRQPPGKALEWLALIDWDDDKYYSTSLKTRLTISKDTSKNQVVLTMTNMDPVDTATYYCARQLHYRGGFDLWGQGTLVTVSS VL: DIVLTQPPSVSGAPGQRVTISCSGSSSNIGSNYVSWYQQLPGTAPKLLIYDNNQRPSGVPDRFSGSKSGTSASLAITGLQSEDEADYYCQSYDLTMGVFGGGTKLTVLG	33	no binding	2860	0.063	22000											
MS-GPC-8-17 Fab (Fab, V domains shown, Fab: VH-CH1 with FLAG tag and STREP tag II, VL-CL; VH residue 1 is Q in Fab; also called 7BA) VH: QVQLKESGPALVKPTQTLTLTCTFSGFSLSTSGVGVGWIRQPPGKALEWLALIDWDDDKYYSTSLKTRLTISKDTSKNQVVLTMTNMDPVDTATYYCARSPRYRGAFDYWGQGTLVTVSS VL: DIVLTQPPSVSGAPGQRVTISCSGSSSNIGSNYVSWYQQLPGTAPKLLIYDNNQRPSGVPDRFSGSKSGTSASLAITGLQSEDEADYYCQSYDFSVYVFGGGTKLTVLG	16					58.6	0.00548	96000	78	54.7	0.00548	100000				fold affinity improvement compared to MS-GPC-8/B8 [3]: 5 fold; Kd [7]: 54.7 nM; koff [7]: 0.00548 s⁻¹; kon [7]: 100000 M⁻¹ s⁻¹
MS-GPC-8 Fab (Fab, V domains shown, Fab from pMx9_Fab: VH-CH1 with FLAG tag and STREP tag II, VL-CL; VH residue 1 is Q in Fab; also called B8-Fab; B8) VH: QVQLKESGPALVKPTQTLTLTCTFSGFSLSTSGVGVGWIRQPPGKALEWLALIDWDDDKYYSTSLKTRLTISKDTSKNQVVLTMTNMDPVDTATYYCARSPRYRGAFDYWGQGTLVTVSS VL: DIVLTQPPSVSGAPGQRVTISCSGSSSNIGSNYVSWYQQLPGTAPKLLIYDNNQRPSGVPDRFSGSKSGTSASLAITGLQSEDEADYYCQSYDMPQAVFGGGTKLTVLG	31					346	0.029	99000	65	346	0.029	99000	110 nM (half the concentration of the Fab)	100	1.06	maximum killing capacity, cross-linked bivalent fragment [8]: 84%; cell killing, cross-linked Fab, 4 h [5]: > 50%; cell killing, cross-linked Fab, 4 h (HLA-DR on MN-60 cells): > 50%; cell killing, cross-linked Fab, 4 h (HLA-DR on BJAB cells): > 50%; cell killing, cross-linked Fab, 4 h (HLA-DR on BONNA-12 cells): > 50%; Kd [10]: 346 nM; koff [10]: 0.029 s⁻¹; kon [10]: 99000 M⁻¹ s⁻¹
MS-GPC-8-27-41 Fab (Fab, V domains shown, Fab: VH-CH1 with FLAG tag and STREP tag II, VL-CL; VH residue 1 is Q in Fab; also called 1D09C3) VH: QVQLKESGPALVKPTQTLTLTCTFSGFSLSTSGVGVGWIRQPPGKALEWLALIDWDDDKYYSTSLKTRLTISKDTSKNQVVLTMTNMDPVDTATYYCARSPRYRGAFDYWGQGTLVTVSS VL: DIVLTQPPSVSGAPGQRVTISCSGSESNIGNNYVQWYQQLPGTAPKLLIYDNNQRPSGVPDRFSGSKSGTSASLAITGLQSEDEADYYCQSYDMNVHVFGGGTKLTVLG	7.7					2.93	0.00049	167000		2.93	0.00049	167000	3.6 nM (half the concentration of the Fab)	100	1.52	EC50 of cell killing, cross-linked Fab, bivalent agent (HLA-DR on LG-2 cells): 7.2 nM; Kd [12]: 2.9 nM; koff [12]: 0.00049 s⁻¹; kon [12]: 170000 M⁻¹ s⁻¹
